Laboratory results as given in publication PMC13534707, “Vps1 drives membrane constriction and fission necessary for endosomal protein sorting” (The EMBO Journal, 2026).

Key:
[1] = molecular target: Vps1(ΔInsB) (S. cerevisiae) (UniProt P21576); test: SEC-MALS; purified Vps1 (~0.32 mg/ml) on Superose 6 10/300 GL, 20 mM HEPES pH 7.5, 150 mM NaCl, room temperature; self-association in solution
[2] = molecular target: the molecule itself; test: as above

Row | Molecule | stoichiometry N [2] | other results
1 | Vps1(ΔInsB) (from UniProt P21576 1-535; P21576 613-704) (enzyme) |  | stoichiometry N [1]: 2
2 | Vps1(Δ4F) (enzyme, S. cerevisiae, UniProt P21576 1-704, looked up, Vps1, S. cerevisiae, lacking the phenylalanine-rich 4F motif (residues 579-587) of Insert B; Same tags as m1; source: bacterially expressed, T7 Express (NEB), purified (Strep-trap HP or Streptactin XT)) MDEHLISTINKLQDALAPLGGGSQSPIDLPQITVVGSQSSGKSSVLENIVGRDFLPRGTGIVTRRPLVLQLINRRPKKSEHAKVNQTANELIDLNINDDDKKKDESGKHQNEGQSEDNKEEWGEFLHLPGKKFYNFDEIRKEIVKETDKVTGANSGISSVPINLRIYSPHVLTLTLVDLPGLTKVPVGDQPPDIERQIKDMLLKYISKPNAIILSVNAANTDLANSDGLKLAREVDPEGTRTIGVLTKVDLMDQGTDVIDILAGRVIPLRYGYIPVINRGQKDIEHKKTIREALENERKFFENHPSYSSKAHYCGTPYLAKKLNSILLHHIRQTLPEIKAKIEATLKKYQNELINLGPETMDSASSVVLSMITDFSNEYAGILDGEAKELSSQELSGGARISYVFHETFKNGVDSLDPFDQIKDSDIRTIMYNSSGSAPSLFVGTEAFEVLVKQQIRRFEEPSLRLVTLVFDELVRMLKQIISQPKYSRYPALREAISNQFIQFLKDATIPTNEFVVDIIKAEQTYINTAHPDLLKGSQAMVMVEEKLHPRQVAVDPKTGKPLPTQPSSSKAPVMEEKTKNKKKLAALESPPPVLKATGQMTERETMETEVIKLLISSYFSIVKRTIADIIPKALMLKLIVKSKTDIQKVLLEKLYGKQDIEELTKENDITIQRRKECKKMVEILRNASQIVSSV | 4 | 
3 | Vps1(Δ3K) (enzyme, S. cerevisiae, UniProt P21576 1-704, looked up, Vps1, S. cerevisiae, lacking the lysine-rich 3K motif (residues 591-593) of Insert B; Same tags as m1; source: bacterially expressed, T7 Express (NEB), purified (Strep-trap HP or Streptactin XT)) MDEHLISTINKLQDALAPLGGGSQSPIDLPQITVVGSQSSGKSSVLENIVGRDFLPRGTGIVTRRPLVLQLINRRPKKSEHAKVNQTANELIDLNINDDDKKKDESGKHQNEGQSEDNKEEWGEFLHLPGKKFYNFDEIRKEIVKETDKVTGANSGISSVPINLRIYSPHVLTLTLVDLPGLTKVPVGDQPPDIERQIKDMLLKYISKPNAIILSVNAANTDLANSDGLKLAREVDPEGTRTIGVLTKVDLMDQGTDVIDILAGRVIPLRYGYIPVINRGQKDIEHKKTIREALENERKFFENHPSYSSKAHYCGTPYLAKKLNSILLHHIRQTLPEIKAKIEATLKKYQNELINLGPETMDSASSVVLSMITDFSNEYAGILDGEAKELSSQELSGGARISYVFHETFKNGVDSLDPFDQIKDSDIRTIMYNSSGSAPSLFVGTEAFEVLVKQQIRRFEEPSLRLVTLVFDELVRMLKQIISQPKYSRYPALREAISNQFIQFLKDATIPTNEFVVDIIKAEQTYINTAHPDLLKGSQAMVMVEEKLHPRQVAVDPKTGKPLPTQPSSSKAPVMEEKSGFFGGFFSTKNLAALESPPPVLKATGQMTERETMETEVIKLLISSYFSIVKRTIADIIPKALMLKLIVKSKTDIQKVLLEKLYGKQDIEELTKENDITIQRRKECKKMVEILRNASQIVSSV | 4 | 
4 | Vacuolar protein sorting-associated protein 1 (Vps1), wild type, recombinant (enzyme, S. cerevisiae, UniProt P21576 1-704, looked up, Vps1, S. cerevisiae; the Vps1 gene amplified from genomic DNA and cloned into pET15b; A TEV site follows the N-terminal 6xHis tag; also called WT; wild-type Vps1; source: bacterially expressed, T7 Express (NEB), purified (Strep-trap HP or Streptactin XT)) MDEHLISTINKLQDALAPLGGGSQSPIDLPQITVVGSQSSGKSSVLENIVGRDFLPRGTGIVTRRPLVLQLINRRPKKSEHAKVNQTANELIDLNINDDDKKKDESGKHQNEGQSEDNKEEWGEFLHLPGKKFYNFDEIRKEIVKETDKVTGANSGISSVPINLRIYSPHVLTLTLVDLPGLTKVPVGDQPPDIERQIKDMLLKYISKPNAIILSVNAANTDLANSDGLKLAREVDPEGTRTIGVLTKVDLMDQGTDVIDILAGRVIPLRYGYIPVINRGQKDIEHKKTIREALENERKFFENHPSYSSKAHYCGTPYLAKKLNSILLHHIRQTLPEIKAKIEATLKKYQNELINLGPETMDSASSVVLSMITDFSNEYAGILDGEAKELSSQELSGGARISYVFHETFKNGVDSLDPFDQIKDSDIRTIMYNSSGSAPSLFVGTEAFEVLVKQQIRRFEEPSLRLVTLVFDELVRMLKQIISQPKYSRYPALREAISNQFIQFLKDATIPTNEFVVDIIKAEQTYINTAHPDLLKGSQAMVMVEEKLHPRQVAVDPKTGKPLPTQPSSSKAPVMEEKSGFFGGFFSTKNKKKLAALESPPPVLKATGQMTERETMETEVIKLLISSYFSIVKRTIADIIPKALMLKLIVKSKTDIQKVLLEKLYGKQDIEELTKENDITIQRRKECKKMVEILRNASQIVSSV |  | binding result [2]: binds
5 | Vps1(G436D) (enzyme, S. cerevisiae, UniProt P21576 1-704, looked up, Vps1, S. cerevisiae, with G436D made by site-directed mutagenesis of the pET15b construct; Same tags as m1; source: bacterially expressed, T7 Express (NEB), purified (Strep-trap HP or Streptactin XT)) MDEHLISTINKLQDALAPLGGGSQSPIDLPQITVVGSQSSGKSSVLENIVGRDFLPRGTGIVTRRPLVLQLINRRPKKSEHAKVNQTANELIDLNINDDDKKKDESGKHQNEGQSEDNKEEWGEFLHLPGKKFYNFDEIRKEIVKETDKVTGANSGISSVPINLRIYSPHVLTLTLVDLPGLTKVPVGDQPPDIERQIKDMLLKYISKPNAIILSVNAANTDLANSDGLKLAREVDPEGTRTIGVLTKVDLMDQGTDVIDILAGRVIPLRYGYIPVINRGQKDIEHKKTIREALENERKFFENHPSYSSKAHYCGTPYLAKKLNSILLHHIRQTLPEIKAKIEATLKKYQNELINLGPETMDSASSVVLSMITDFSNEYAGILDGEAKELSSQELSGGARISYVFHETFKNGVDSLDPFDQIKDSDIRTIMYNSSDSAPSLFVGTEAFEVLVKQQIRRFEEPSLRLVTLVFDELVRMLKQIISQPKYSRYPALREAISNQFIQFLKDATIPTNEFVVDIIKAEQTYINTAHPDLLKGSQAMVMVEEKLHPRQVAVDPKTGKPLPTQPSSSKAPVMEEKSGFFGGFFSTKNKKKLAALESPPPVLKATGQMTERETMETEVIKLLISSYFSIVKRTIADIIPKALMLKLIVKSKTDIQKVLLEKLYGKQDIEELTKENDITIQRRKECKKMVEILRNASQIVSSV | 2 | 
